The values below come from PMC6545606.

For test [1], the target named is K48-linked diubiquitin (ubiquitin_(K48R) joined to ubiquitin_(G76C)), fluorescently labelled (human) (UniProt P0CG47). Nature of the test: other fluorescence titration.
The target in test [2] is K63-linked diubiquitin (ubiquitin_(K63R) joined to ubiquitin_(G76C)), fluorescently labelled (human) (UniProt P0CG47). Nature of the test: other fluorescence titration.
Test [3] addresses ubiquitin_(G76C), fluorescently labelled (human) (UniProt P0CG47). Put plainly: other fluorescence titration.
In test [4] the target is K48-linked diubiquitin (Homo sapiens) (UniProt P0CG47). The settings on record: cited from earlier work.
The next test concerns the target ubiquitin (Homo sapiens) (UniProt P0CG47). The settings on record: cited from earlier work.

Sequence of S5a (P55036 whole entry): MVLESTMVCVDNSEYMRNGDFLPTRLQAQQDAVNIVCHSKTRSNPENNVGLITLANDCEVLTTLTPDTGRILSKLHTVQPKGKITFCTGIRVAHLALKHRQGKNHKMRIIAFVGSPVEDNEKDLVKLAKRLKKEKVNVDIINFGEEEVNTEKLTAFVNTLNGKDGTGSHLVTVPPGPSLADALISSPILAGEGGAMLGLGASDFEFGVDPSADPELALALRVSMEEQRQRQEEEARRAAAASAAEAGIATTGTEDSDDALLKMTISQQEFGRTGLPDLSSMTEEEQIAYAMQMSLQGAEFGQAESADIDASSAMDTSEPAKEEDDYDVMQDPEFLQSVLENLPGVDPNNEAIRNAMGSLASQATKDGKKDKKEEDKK

For “StoD (S. Typhi outer protein D), full-length, untagged (enzyme)”, the Kd in test [1] was found to be 15 µM; in test [2], 5.6 µM; in test [3], 55 µM.
For S5a (from UniProt P55036), the figures for the Kd (in test [4]; with ubiquitin (Homo sapiens)) were 8.9 µM and 73 µM, respectively.
